# Results taken from patent US20220251204A1 (AstraZeneca / MedImmune, published 2022).
# T1: human CTLA-4 expressed on cells (human, UniProt P16410 36-223)
# T1 sequence: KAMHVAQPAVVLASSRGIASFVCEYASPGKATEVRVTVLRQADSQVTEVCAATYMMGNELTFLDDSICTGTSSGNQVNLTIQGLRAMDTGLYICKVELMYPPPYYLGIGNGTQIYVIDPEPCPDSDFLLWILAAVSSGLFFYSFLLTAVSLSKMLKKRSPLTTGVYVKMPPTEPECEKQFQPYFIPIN
# T2: human TIM3 (soluble) (human, UniProt Q8TDQ0 22-202)
# T2 construct: also called Biotinylated human TIM3
# T2 sequence: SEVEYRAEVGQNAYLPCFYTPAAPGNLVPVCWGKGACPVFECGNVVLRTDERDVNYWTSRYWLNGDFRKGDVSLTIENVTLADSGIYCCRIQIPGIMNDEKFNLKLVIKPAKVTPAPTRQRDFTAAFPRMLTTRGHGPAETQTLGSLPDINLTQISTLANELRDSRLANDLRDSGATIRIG
# T3: cynomolgus TIM3 (cynomolgus, UniProt A0A2K5U3G7 22-195)
# T3 construct: also called Cyno TIM3
# T3 sequence: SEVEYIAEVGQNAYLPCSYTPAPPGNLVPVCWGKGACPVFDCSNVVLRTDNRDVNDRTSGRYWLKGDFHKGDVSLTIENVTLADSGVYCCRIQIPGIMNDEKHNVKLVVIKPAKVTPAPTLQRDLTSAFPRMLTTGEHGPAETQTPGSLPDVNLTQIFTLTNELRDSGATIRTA
# T4: CTLA-4-Fc (human recombinant protein, R&D Systems) (human, UniProt P16410 37-162)
# T4 construct: also called CTLA-4-Fc antigen; not shown: Fc part of the bought fusion
# T4 sequence: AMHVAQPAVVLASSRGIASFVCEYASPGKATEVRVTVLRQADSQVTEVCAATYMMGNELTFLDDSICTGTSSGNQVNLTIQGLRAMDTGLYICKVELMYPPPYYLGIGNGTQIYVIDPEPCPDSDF
# Legend:
# [1] = target: T1, human CTLA-4 expressed on cells; test: cell-based or functional assay
# [2] = target: T5, cynomolgus PD-1 (cynomolgus, UniProt B0LAJ3 25-170); test: SPR, BIAcore T200; antibody captured on mouse anti-huIgG-Fab, antigen injected
# T5 construct: also called cyno PD1
# T5 sequence (B0LAJ3 entry or part of it limits assumed): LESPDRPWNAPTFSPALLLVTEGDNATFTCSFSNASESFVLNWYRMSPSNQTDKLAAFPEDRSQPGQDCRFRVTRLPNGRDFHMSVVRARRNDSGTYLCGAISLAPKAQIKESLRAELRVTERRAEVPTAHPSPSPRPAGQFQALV
# Procedure: (§1) Binding experiments were carried out using a BIAcore T200 instrument (BIAcore). To capture the antibody, mouse anti-huIgG-Fab was immobilized on a CM5 chip to a target response of 2000 RU. 100 nM of the DuetMab or mAbs were flowed at 20 μL/min for 5 min to achieve approximately 100 response units of captured antibody. Antigen were then injected serially at a flow rate of 50 μl/min for 5 min. Kinetic parameters (kₒₙ and koff) and dissociation constant (KD) were calculated from a non-linear fit using BIAevaluation 4.1 software.
# [3] = target: T2, human TIM3 (soluble); test: as above
# Procedure: as §1
# [4] = target: T3, cynomolgus TIM3; test: as above
# Procedure: as §1
# [5] = target: T6, human PD-1 antigen (soluble) (human, UniProt Q15116 25-170); test: as above
# T6 construct: also called hu PD1; Biotinylated human PD-1
# T6 sequence (Q15116 25-170 limits assumed): as the sequence (B0LAJ3 entry or part of it limits assumed) above, with E2D, A10P, L19V, A35T, R75Q, A144T counted along it
# Procedure: as §1
# [6] = target: T4, CTLA-4-Fc (human recombinant protein, …); test: Octet, same tip after PDL1-His and bispecific, then CTLA-4-Fc (100 nM per paragraph 296): concurrent binding
# Procedure: To evaluate binding of the bispecific binding molecules disclosed herein, an Octet QK equipped with Ni-NTA biosensor tips and 10× kinetics buffer were used (ForteBlio, Menlo Park, Calif.). […] All binding assays were performed at 25° C.
Binder,Kd [2] [nM],koff [2] [s⁻¹],kon [2] [M⁻¹ s⁻¹],Kd [5] [nM],koff [5] [s⁻¹],kon [5] [M⁻¹ s⁻¹],binding result [6],further results
"Bis5 PD-1/CTLA-4 (bispecific antibody, human IgG4 S228P, kappa) heavy: EVQLVESGGGLVQPGGSLRLSCAASGFTFSDYGMHWVRQAPGKGLEWVAYISSGSYTIYSADSVKGRFTISRDNAKNSLYLQMNSLRAEDTAVYYCARRAPNSFYEYYFDYWGQGTTVTVSSASTKGPSVFPLAPCSRSTSESTAALGCLVKDYFPEPVTVSWNSGALTSGVHTFPAVLQSSGLYSLSSVVTVPSSSLGTKTYTCNVDHKPSNTKVDKRVESKYGPPCPPCPAPEFLGGPSVFLFPPKPKDTLMISRTPEVTCVVVDVSQEDPEVQFNWYVDGVEVHNAKTKPREEQFNSTYRVVSVLTVLHQDWLNGKEYKCKVSNKGLPSSIEKTISKAKGQPREPQVYTLPPSQEEMTKNQVSLTCLVKGFYPSDIAVEWESNGGGGSGGGGSDIQMTQSPSSLSASVGDRVTITCRASQSINSYLDWYQQKPGKAPKLLIYAASSLQSGVPSRFSGSGSGTDFTLTISSLQPEDFATYYCQQYYSTPFTFGCGTKVEIKGGGGSGGGGSGGGGSGGGGSQVQLVESGGGVVQPGRSLRLSCAASGFTFSSYGMHWVRQAPGKCLEWVAVIWYDGSNKYYADSVKGRFTISRDNSKNTLYLQMNSLRAEDTAVYYCARDPRGATLYYYYYGMDVWGQGTTVTVSSGGGGSGGGGSGQPENNYKTTPPVLDSDGSFFLYSRLTVDKSRWQEGNVFSCSVMHEALHNHYTQKSLSLSLGK light: QIVLTQSPATLSLSPGERATLSCSASSKHTNLYWSRHMYWYQQKPGQAPRLLIYLTSNRATGIPARFSGSGSGTDFTLTISSLEPEDFAVYYCQQWSSNPFTFGQGTKLEIKRTVAAPSVFIFPPSDEQLKSGTASVVCLLNNFYPREAKVQWKVDNALQSGNSQESVTEQDSKDSTYSLSSTLTLSKADYEKHKVYACEVTHQGLSSPVTKSFNRGEC",,,,,,,,"fold decrease in CTLA-4 reporter gene assay, potency [1]: ~3 fold"
"PD-1(LO115)/TIM3(O13-1) DuetMab (bispecific antibody, human IgG1, kappa, lambda, also called PD-1/TIM3 DuetMab) heavy 1: EVQLVESGGGLVQPGGSLRLSCAASGFTFSDYGMHWVRQAPGKGLEWVAYISSGSYTIYSADSVKGRFTISRDNAKNSLYLQMNSLRAEDTAVYYCARRAPNSFYEYYFDYWGQGTTVTVSSASTKGPSVFPLAPSSKSTSGGTAALGCLVKDYFPEPVTVSWNSGALTSGVHTFPAVLQSSGLYSLSSVVTVPSSSLGTQTYICNVNHKPSNTKVDKRVEPKSCDKTHTCPPCPAPEFEGGPSVFLFPPKPKDTLMISRTPEVTCVVVDVSHEDPEVKFNWYVDGVEVHNAKTKPREEQYNSTYRVVSVLTVLHQDWLNGKEYKCKVSNKALPASIEKTISKAKGQPREPQVCTLPPSREEMTKNQVSLSCAVKGFYPSDIAVEWESNGQPENNYKTTPPVLDSDGSFFLVSKLTVDKSRWQQGNVFSCSVMHEALHNHYTQKSLSLSPGK light 1: QIVLTQSPATLSLSPGERATLSCSASSKHTNLYWSRHMYWYQQKPGQAPRLLIYLTSNRATGIPARFSGSGSGTDFTLTISSLEPEDFAVYYCQQWSSNPFTFGQGTKLEIKRTVAAPSVFIFPPSDEQLKSGTASVVCLLNNFYPREAKVQWKVDNALQSGNSQESVTEQDSKDSTYSLSSTLTLSKADYEKHKVYACEVTHQGLSSPVTKSFNRGEC heavy 2: not shown light 2: SYVLTQPPSVSVAPGKTARITCGGDNIGGKSVHWYQQKPGQAPVLVIYYDSDRPSGIPERFSGSNSGNTATLTISRVEAGDEADYYCQVLDRRSDHFLFGGGTKLTVLGQPKAAPSVTLFPPCSEELQANKATLVCLISDFYPGAVTVAWKADSSPVKAGVETTTPSKQSNNKYAASSYLSLTPEQWKSHRSYSCQVTHEGSTVEKTVAPTEVS",0.44,0.000215,490000,0.81,0.000236,295000,,Kd [3]: 4.15 nM; koff [3]: 0.00813 s⁻¹; kon [3]: 1.96e+06 M⁻¹ s⁻¹; Kd [4]: 25.6 nM; koff [4]: 0.0761 s⁻¹; kon [4]: 2.98e+06 M⁻¹ s⁻¹
"Bis2 PD-L1/CTLA-4 (bispecific antibody, human IgG4 S228P, kappa) heavy: not shown light: EIVLTQSPGTLSLSPGERATLSCRASQRVSSSYLAWYQQKPGQAPRLLIYDASSRATGIPDRFSGSGSGTDFTLTISRLEPEDFAVYYCQQYGSLPWTFGQGTKVEIKRTVAAPSVFIFPPSDEQLKSGTASVVCLLNNFYPREAKVQWKVDNALQSGNSQESVTEQDSKDSTYSLSSTLTLSKADYEKHKVYACEVTHQGLSSPVTKSFNRGEC",,,,,,,binds,
"Bis5 PD-L1/CTLA-4 (bispecific antibody, human IgG4 S228P, kappa) heavy: EVQLVESGGGLVQPGGSLRLSCAASGFTFSRYWMSWVRQAPGKGLEWVANIKQDGSEKYYVDSVKGRFTISRDNAKNSLYLQMNSLRAEDTAVYYCAREGGWFGELAFDYWGQGTLVTVSSASTKGPSVFPLAPCSRSTSESTAALGCLVKDYFPEPVTVSWNSGALTSGVHTFPAVLQSSGLYSLSSVVTVPSSSLGTKTYTCNVDHKPSNTKVDKRVESKYGPPCPPCPAPEFLGGPSVFLFPPKPKDTLMISRTPEVTCVVVDVSQEDPEVQFNWYVDGVEVHNAKTKPREEQFNSTYRVVSVLTVLHQDWLNGKEYKCKVSNKGLPSSIEKTISKAKGQPREPQVYTLPPSQEEMTKNQVSLTCLVKGFYPSDIAVEWESNGGGGSGGGGSDIQMTQSPSSLSASVGDRVTITCRASQSINSYLDWYQQKPGKAPKLLIYAASSLQSGVPSRFSGSGSGTDFTLTISSLQPEDFATYYCQQYYSTPFTFGCGTKVEIKGGGGSGGGGSGGGGSGGGGSQVQLVESGGGVVQPGRSLRLSCAASGFTFSSYGMHWVRQAPGKCLEWVAVIWYDGSNKYYADSVKGRFTISRDNSKNTLYLQMNSLRAEDTAVYYCARDPRGATLYYYYYGMDVWGQGTTVTVSSGGGGSGGGGSGQPENNYKTTPPVLDSDGSFFLYSRLTVDKSRWQEGNVFSCSVMHEALHNHYTQKSLSLSLGK light: EIVLTQSPGTLSLSPGERATLSCRASQRVSSSYLAWYQQKPGQAPRLLIYDASSRATGIPDRFSGSGSGTDFTLTISRLEPEDFAVYYCQQYGSLPWTFGQGTKVEIKRTVAAPSVFIFPPSDEQLKSGTASVVCLLNNFYPREAKVQWKVDNALQSGNSQESVTEQDSKDSTYSLSSTLTLSKADYEKHKVYACEVTHQGLSSPVTKSFNRGEC",,,,,,,binds,
"Bis3 PD-L1/CTLA-4 (bispecific antibody, human IgG4 S228P, kappa) heavy: not shown light: EIVLTQSPGTLSLSPGERATLSCRASQRVSSSYLAWYQQKPGQAPRLLIYDASSRATGIPDRFSGSGSGTDFTLTISRLEPEDFAVYYCQQYGSLPWTFGQGTKVEIKRTVAAPSVFIFPPSDEQLKSGTASVVCLLNNFYPREAKVQWKVDNALQSGNSQESVTEQDSKDSTYSLSSTLTLSKADYEKHKVYACEVTHQGLSSPVTKSFNRGEC",,,,,,,binds,
"LO115 IgG1-TM (antibody, V domains shown, also called parental LO115 IgG1) VH: EVQLVESGGGLVQPGGSLRLSCAASGFTFSDYGMHWVRQAPGKGLEWVAYISSGSYTIYSADSVKGRFTISRDNAKNSLYLQMNSLRAEDTAVYYCARRAPNSFYEYYFDYWGQGTTVTVSS VL: QIVLTQSPATLSLSPGERATLSCSASSKHTNLYWSRHMYWYQQKPGQAPRLLIYLTSNRATGIPARFSGSGSGTDFTLTISSLEPEDFAVYYCQQWSSNPFTFGQGTKLEIK",0.81,0.000238,346000,0.79,0.000237,302000,,
